Test results from the FLAb antibody collection (doi:10.1101/2023.12.08.570889).
Changes are numbered by the printed parent chain.

B1: unnamed (protein)
chain 1: QMQLVESGGGVVQPGRSLRLSCAASGFTFSSFAMHWVRQAPGKGLEWVAVIWYDGSNKHYADSVKGRFTITRDNSKNTLNLQMNSLRAEDTAVYYCARAPRYDDYYEAFDVWGQGTMVTVSS
chain 2: SYVLTQPPSVSVAPGQTARITCGGNNLGSKSVHWYQQKPGQAPVLVVYDDSDRPSWIPERFSGSNSGNTATLTISRGEAGDEADYYCQVWDSSSDHVVFGGGTKLTVL
B2: unnamed (protein)
chain 1: B1 chain 1 with S31T, Y105A
chain 2: B1 chain 2
B3: unnamed (protein)
chain 1: B1 chain 1 with S31T, D104E, Y106V
chain 2: B1 chain 2
B4: unnamed (protein)
chain 1: B1 chain 1 with S31T, F32Y, D104Y
chain 2: B1 chain 2
B5: unnamed (protein)
chain 1: B1 chain 1 with S31T, D103Y, D104E, Y106W
chain 2: B1 chain 2
B6: unnamed (protein)
chain 1: B1 chain 1 with S31T, A99S, D104E, Y106W
chain 2: B1 chain 2
B7: unnamed (protein)
chain 1: B1 chain 1 with S31T, A99S, D104E
chain 2: B1 chain 2
B8: unnamed (protein)
chain 1: B1 chain 1 with S31T, A99S, Y106W
chain 2: B1 chain 2
B9: unnamed (protein)
chain 1: B1 chain 1 with S31T, A99S, D104W
chain 2: B1 chain 2
B10: unnamed (protein)
chain 1: B1 chain 1 with S31T, F32Y, D103Y, D104E, Y106W
chain 2: B1 chain 2
B11: unnamed (protein)
chain 1: B1 chain 1 with S31T, D104W, Y105D
chain 2: B1 chain 2
B12: unnamed (protein)
chain 1: B1 chain 1 with S31T, F32Y, A99S, D104W
chain 2: B1 chain 2
B13: unnamed (protein)
chain 1: B1 chain 1 with S31T, F32Y, D103Y, D104Y
chain 2: B1 chain 2
B14: unnamed (protein)
chain 1: B1 chain 1 with S31T, D104Y, Y106L
chain 2: B1 chain 2
B15: unnamed (protein)
chain 1: B1 chain 1 with S31T, D103Y, D104W, Y106W
chain 2: B1 chain 2
B16: unnamed (protein)
chain 1: B1 chain 1 with S31T, F32Y, D103Y, D104E
chain 2: B1 chain 2
B17: unnamed (protein)
chain 1: B1 chain 1 with S31T, F32Y, Y105A
chain 2: B1 chain 2
B18: unnamed (protein)
chain 1: B1 chain 1 with S31T, A99S, D104E, Y106L
chain 2: B1 chain 2
B19: unnamed (protein)
chain 1: B1 chain 1 with S31T, A99S, D104Y
chain 2: B1 chain 2

Molecular target: TSLP, Q969D9
Assay: Kd (SPR)

Binder | Kd
B1 | 136 nM
B2 | 387 nM
B3 | 129 nM
B4 | 315 nM
B5 | 190 nM
B6 | 31.6 nM
B7 | 103 nM
B8 | 320 nM
B9 | 126 nM
B10 | 285 nM
B11 | 349 nM
B12 | 96.3 nM
B13 | 152 nM
B14 | 519 nM
B15 | 353 nM
B16 | 105 nM
B17 | 370 nM
B18 | 117 nM
B19 | 372 nM
